From patent US20090123474A1, “COMBINATION OF ANGIOPOIETIN-2 ANTAGONIST AND OF VEGF-A, KDR AND/OR FLTL ANTAGONIST FOR TREATING CANCER” (ASTRAZENECA AB, priority 2005, published 2009)

T1: Angiopoietin-2 binding to Tie-2 (Homo sapiens, UniProt O15123)
T1 construct: purchased R&D Systems, Inc. BT623 (Angiopoietin-2, biotinylated); 313-TI-100 (Tie-2/Fc)
T1 sequence (O15123 19-496): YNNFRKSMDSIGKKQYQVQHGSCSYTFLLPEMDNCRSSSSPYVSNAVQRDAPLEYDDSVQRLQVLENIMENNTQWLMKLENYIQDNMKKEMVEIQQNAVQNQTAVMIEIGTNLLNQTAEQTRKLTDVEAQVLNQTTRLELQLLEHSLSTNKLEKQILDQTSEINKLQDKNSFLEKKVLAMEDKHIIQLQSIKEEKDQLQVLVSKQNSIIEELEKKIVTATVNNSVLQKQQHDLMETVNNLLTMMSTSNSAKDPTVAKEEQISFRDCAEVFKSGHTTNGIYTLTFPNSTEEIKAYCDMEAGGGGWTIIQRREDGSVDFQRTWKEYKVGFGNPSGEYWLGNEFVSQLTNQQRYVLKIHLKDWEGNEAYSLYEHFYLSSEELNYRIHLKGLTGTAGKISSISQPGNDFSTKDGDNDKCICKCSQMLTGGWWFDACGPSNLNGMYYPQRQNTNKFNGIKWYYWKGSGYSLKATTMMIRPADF


Biological target: T1, Angiopoietin-2 binding to Tie-2
Assay: Competitive binding assay (modified ELISA): inhibition of Angiopoietin-2 binding to Tie-2
Settings: for EC50: potency, competitive binding of Angiopoietin-2 to Tie-2, purified mAb; for Efficacy*: ratio of bound Angiopoietin-2 with mAb (30 μg/ml) versus without mAb
Experimental: As discussed above, Angiopoietin-2 exerts its biological effect by binding to the Tie-2 receptor. Monoclonal antibodies that inhibited Angiopoietin-2/Tie-2 binding were identified by a competitive binding assay using a modified ELISA. The mAb used were products of micro-purification from 50 ml of exhaustive supernatants of the hybridoma pools that were specific for Angiopoietin-2 (see above). 96-well Nunc Immplates™ were coated with 100 μl of recombinant human Tie-2/Fc fusion protein (R&D Systems, Inc., Cat. No. 313-TI-100) at 4 μg/ml by incubating overnight at 4° C. The plates were washed four times using Phosphate Buffer Saline (PBS) with a Skan™ Washer 300 station (SKATRON). The wells were blocked by 100 μl of ABX-blocking buffer (0.5% BSA, 0.1% Tween, 0.01% Thimerosal in PBS) for 1 hour.
Biotinylated recombinant human Angiopoietin-2 (R&D Systems, Inc. Cat. No. […] The plates were incubated at room temperature for two hours before the unbound molecules were washed off. Bound biotinylated Angiopoietin-2 was then detected using 100 μl/well of Streptavidin-HRP conjugate at 1:200 by incubating at room temperature for half an hour. After washing twice, the bound Streptavidin was detected by HRP substrate (R&D Systems, Cat. No. DY998). The plates were incubated for 30 minutes before 450 stop solution (100 μl/well, BioFX, Cat# BSTP-0100-01) was added to terminate the reaction. The light absorbance at 450 nm was determined by a Spectramax Plus reader.
Soluble recombinant Tie-2/Fc fusion protein at 10-fold molar excess to Angiopoietin-2 was used as a positive control. At this concentration, Tie-2/Fc inhibited binding of Angiopoietin-2 to immobilized Tie-2 by 80%.
To quantitate the inhibitory activities of the mAb on Angiopoietin-2 binding to Tie-2, the titer was determined for purified mAbs from the top candidates using a competitive binding assay. Each concentration of the mAb was tested in duplicate. The concentration-response relationship was found by curve fitting using Graphpad Prism™ graphic software (non-linear, Sigmoid curve). The maximal inhibition (efficacy) and IC50 (potency) were calculated by the software.

Row | Molecule | EC50 [µg/mL] | Efficacy* | inhibition of binding of Angiopoietin-2 to immobilized Tie-2 (positive control at 10-fold molar excess to Angiopoietin-2) [%]
1 | mAb 3.3.2: fully human anti-Angiopoietin-2 monoclonal antibody, variable regions SEQ ID NO: 1-4 (antibody, listed as Homo Sapiens, V domains shown) VH: EVQLVESGGGLVQPGGSLRLSCAVSGFTFSSYWMSWVRQAPGKGLEWVANIKQDGSEKYYVDSVKGRFTISRDNAKNSLYLQMNSLRAEDTAVYYCARDQGIAVAGPFDYWGQGTLVTVSSA VL: EIVMTQSPATLSVSPGERATLSCRASQTVSSDLAWYQQKPGQAPRLLIYGASIRATGIPARFSGSGSGTEFTLTISSLQSEDFAVYSCQQYYNWWTFGQGTKVEIKR | 0.1684 | 0.3881 | –
2 | mAb 5.16.3: fully human anti-Angiopoietin-2 monoclonal antibody, variable regions SEQ ID NO: 13-16 (antibody, listed as Homo sapiens, listed as Homo Sapiens, V domains shown) VH: QVQLVQSGAEVKKPGASVKVSCKASGYTFTGFYMYWVRQAPGQGLEWMGWINPNSSGTNHAQKFQGRVTMTRDTSISTAYMELSRLRSDDTAVYYCARDQDIATAGPFDYWGQGTLVTVSS VL: EIVMTQSPATLSVSPGERATLSCRASQSVSSNLAWYQQKPGQAPRLLIFGASTRATGIPARFSGSGSGTEFTLTISSLQSEDFAVYYCQQYNNWWTFGRGTKVEIKR | 0.08532 | 0.3279 | –
3 | mAb 3.31.2: fully human anti-Angiopoietin-2 monoclonal antibody, variable regions SEQ ID NO: 9-12 (antibody, listed as Homo sapiens, V domains shown) VH: EVQLVESGGGLVQPGGSLRLSCAASGFTFSSYWMSWVRQAPGKGLEWVANIKQDGSDKYYVDSVKGRFTISRDNAKNSLYLRMNSLRAEDTAVFYCARDMGSGWFDYWGQGTLVTVSSA VL: EVVMTQSPATLSVSPGERATLSCRASQSVGSNLAWYQQKPGQAPRLLIYGASTRATGIPARFSGSGSGTEFTLTISSLQSEDFAVYCCQQYNHWWTFGQGTKVEIKR | 0.04169 | 0.3751 | –
4 | Tie-2/Fc: soluble recombinant human Tie-2/Fc fusion protein (R&D Systems), positive control (protein, left off: a dimerising Fc or GST, soluble recombinant human Tie-2/Fc fusion protein (R&D Systems), positive control) AMDLILINSLPLVSDAETSLTCIASGWRPHEPITIGRDFEALMNQHQDPLEVTQDVTREWAKKVVWKREKASKINGAYFCEGRVRGEAIRIRTMKMRQQASFLPATLTMTVDKGDNVNISFKKVLIKEEDAVIYKNGSFIHSVPRHEVPDILEVHLPHAQPQDAGVYSARYIGGNLFTSAFTRLIVRRCEAQKWGPECNHLCTACMNNGVCHEDTGECICPPGFMGRTCEKACELHTFGRTCKERCSGQEGCKSYVFCLPDPYGCSCATGWKGLQCNEACHPGFYGPDCKLRCSCNNGEMCDRFQGCLCSPGWQGLQCEREGIQRMTPKIVDLPDHIEVNSGKFNPICKASGWPLPTNEEMTLVKPDGTVLHPKDFNHTDHFSVAIFTIHRILPPDSGVWVCSVNTVAGMVEKPFNISVKVLPKPLNAPNVIDTGHNFAVINISSEPYFGDGPIKSKKLLYKPVNHYEAWQHIQVTNEIVTLNYLEPRTEYELCVQLVRRGEGGEGHPGPVRRFTTASIGLPPPRGLNLLPKSQTTLNLTWQPIFPSSEDDFYVEVERRSVQKSDQQNIKVPGNLTSVLLNNLHPREQYVVRARVNTKAQGEWSEDLTAWTLSDILPPQPENIKISNITHSSAVISWTILDGYSISSITIRYKVQGKNEDQHVDVKIKNATITQYQLKGLEPETAYQVDIFAENNIGSSNPAFSHELVTLPESQAPADLGGGK | – | – | 80

The remaining lines, values ahead:

Row | EC50 [µg/mL] | Efficacy* | inhibition of binding of Angiopoietin-2 to immobilized Tie-2 (positive control at 10-fold molar excess to Angiopoietin-2) [%] | Molecule
5 | 0.1331 | 0.3844 | – | mAb 5.86.1: fully human anti-Angiopoietin-2 monoclonal antibody, variable regions SEQ ID NO: 25-28 (antibody, listed as Homo Sapiens, listed as Homo sapiens, V domains shown) VH: QVQLVQSGAEVKKPGASVKVSCKASGYTFTGYHMYWVRQAPGQGLEWLGWINPNSGGTNYAQKFQGRVTMTRDTSISTAYMELSRLRSDDTAVYYCVRDQGIAAAGPFDYWCQGTLVTVSSA VL: DIRMTQSPSSLSASVGDRVTITCRASQRISTYLNWYQQKPGKAPKFLIYAASSLQSGVPSRFSGSGSGTDFTLTISSLQPEDFATYYCQQSYTTPFTFGPGTKVDIKR
6 | 0.1557 | 0.4032 | – | mAb 5.88.3: fully human anti-Angiopoietin-2 monoclonal antibody, variable regions SEQ ID NO: 29-32 (antibody, listed as Homo Sapiens, V domains shown) VH: EVQMVESGGGLVQPGGSLRLSCAASGFTLRSYWMSWVRQAPGKGLEWVANIKEDGSEKYHVDSVKGRFTISRDNAENSLFLQMSSLRAEDTAVYYCARDMEASAGLFDYWGQGTLVTVSSA VL: EIVMTQSPATLSVSPGERAILSCRASQSISSNLAWYQQKPGQAPRLLIYGASTRATGIPARFSGSGSGTEFTLTISSLQSEDFAVYYCQQYNYWWTFGQGTKVEIKR
7 | 2.698 | 0.3892 | – | mAb 5.28.1: fully human anti-Angiopoietin-2 monoclonal antibody, variable regions SEQ ID NO: 17-20 (antibody, listed as Homo sapiens, listed as Homo Sapiens, V domains shown) VH: EVQLVESGGIVVQPGGSLRLSCAASGFTFDDYTMHWVRQTPGKGLEWVSLISWDGGSTYYADSVKGRFTISRDNSKNSLYLQMNSLRTEDTALYYCAKDIDIAVAGTGFDHWGQGTLVTVSSA VL: EIVMTQSPATLSVSPGERATLSCRASQSVTSNLAWYQQKPGQAPRLLIYGALIRATGIPARFSGSGSGTEFTLTISSLQSEDFAVYYCQQYNNWPFTFGPGTKVDIKR
